For 1 molecule, Kd results are on record in paper PMC10641069, “Intra- and inter-molecular regulation by intrinsically-disordered regions governs PUF protein RNA binding” (Nature Communications, 2023).

This assay has as its target T1, FBF-2 RBD (FBF-2 residues 164-575) (C. elegans, UniProt Q09312 164-575).
T1 construct: The tag was cleaved with TEV protease; also called FBF-2^164–575; RBD alone; source: E. coli, purified (Ni-NTA, heparin, Superdex 75); not shown: His6-SUMO, N-terminal, cleaved
T1 sequence (looked up): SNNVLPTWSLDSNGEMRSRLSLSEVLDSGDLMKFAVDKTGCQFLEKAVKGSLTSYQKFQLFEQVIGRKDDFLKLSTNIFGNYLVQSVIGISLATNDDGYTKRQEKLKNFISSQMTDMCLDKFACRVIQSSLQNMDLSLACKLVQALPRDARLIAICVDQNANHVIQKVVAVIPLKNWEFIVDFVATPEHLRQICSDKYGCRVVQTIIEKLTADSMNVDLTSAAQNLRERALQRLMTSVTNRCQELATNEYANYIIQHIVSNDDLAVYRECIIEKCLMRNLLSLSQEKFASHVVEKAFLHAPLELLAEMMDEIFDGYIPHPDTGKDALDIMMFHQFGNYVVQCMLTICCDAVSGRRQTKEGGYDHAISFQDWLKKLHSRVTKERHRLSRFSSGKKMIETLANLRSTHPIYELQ
Description: ITC; peptide (100–400 µM) titrated from the syringe into the cell containing FBF-2 (10–30 µM); 20 °C; 20 mM HEPES pH 7.4, 150 mM NaCl, 0.5 mM TCEP; no RNA; one-site model; mean of two replicates. As to conditions: both partners purified. For orientation: In ITC the heat of successive injections is recorded.

B1: FBF-2 CT peptide (FBF-2 residues 601-632) (peptide, UniProt Q09312 601-632, looked up)
chain: NGIEEGSLMLEPRSNKSSVSVKFSSSGSHGDD
notes: holds the PIM SLMLEPR (607-613); The tag was cleaved with Ulp1 protease; also called FBF-2^601–632; source: E. coli BL21-CodonPlus (DE3)-RIL, purified (Ni-NTA, HiTrap Q flow-through, Superdex 75); not shown: His6-SUMO, N-terminal, cleaved
For the molecule B1, binding was put at a Kd of 35 µM.

A word on the Kd: it is the concentration at which binding is half-saturated. A high value points to weaker binding.
